This test has as its target T1, SARS-CoV-2 prototype receptor binding domain (SARS-CoV-2 prototype, GISAID …, UniProt P0DTC2).
T1 construct: also called SARS-CoV-2 PT RBD; RBD
The experiment in a line: SPR; BIAcore 8K; antibody captured on a Protein A chip ([…]; running buffer PBST (PBS + 0.05% ([…]) Tween 20); […]; 1:1 (Langmuir) binding model; […]. To be noted: both partners purified. (In general: In SPR one partner is held on a chip, and binding of the other changes the refractive index at the surface.)

B1: CB6 antibody (wild type) (antibody, V domains shown)
VH: EVQLVESGGGLVQPGGSLRLSCAASGFTVSSNYMSWVRQAPGKGLEWVSVIYSGGSTFYADSVKGRFTISRDNSMNTLFLQMNSLRAEDTAVYYCARVLPMYGDYLDYWGQGTLVTVSS
VL: not shown
notes: heavy chain variable region of CB6; constant region of human IgG1; light chain variable part of CB6; Ig kappa chain (constant part) to which the light chain was fused; IgG1, kappa; also called WT
For the molecule B1, the Kd was 14.6 nM.

The term Kd denotes the concentration at which binding is half-saturated.

These data come from article PMC12199698, “Reliable prediction of protein–protein binding affinity changes upon mutations with Pythia-PPI” (National Science Review, 2025).
